Substitutions are numbered along the chain they refer to. Names may count otherwise.
B1: Escherichia coli NudC (crystallization construct) (enzyme, E. coli)
chain: MDRIIEKLDHGWWVVSHEQKLWLPKGELPYGEAANFDLVGQRALQIGEWQGEPVWLVQQQRRHDMGSVRQVIDLDVGLFQLAGRGVQLAEFYRSHKYCGYCGHEMYPSKTEWAMLCSHCRERYYPQIAPCIIVAIRRDDSILLAQHTRHRNGVHTVLAGFVEVGETLEQAVAREVMEESGIKVKNLRYVTSQPWPFPQSLMTAFMAEYDSGDIVIDPKELLEANWYRYDDLPLLPPPGTVARRLIEDTVAMCRAEYE
B2: E. coli NudC Y188Q (enzyme, E. coli K-12, UniProt P32664 1-257, looked up)
chain: B1 chain with Y188Q
B3: E. coli NudC Y188A (enzyme, E. coli K-12, UniProt P32664 1-257, looked up)
chain: B1 chain with Y188A

Columns and labels:
crystal structure = target: the molecule itself; assay: crystal structure
SEC = target: the molecule itself; assay: SEC

Row | Protein | stoichiometry N (crystal structure) | binding result (SEC)
1 | B1 | 2 | –
2 | B2 | – | binds
3 | B3 | – | binds

Reference: article PMC5003112 (Nature chemical biology, 2016)
